Values quoted from earlier work in publication PMC4962041.

Biological target: ubiquitin (UniProt P0CG48)

yDdi1 UBL, sequence (P40087 1-80): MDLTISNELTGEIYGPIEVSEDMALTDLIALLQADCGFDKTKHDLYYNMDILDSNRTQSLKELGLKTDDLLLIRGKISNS

Kd: 45 µM
Substance: yDdi1 UBL (from UniProt P40087)
